Test results published in the supplement of paper PMC9170038.

System: MS2 coat protein
Test: apparent KD of MS2 coat protein; designed switch direction (-1 OFF switch, 1 ON switch): -1; higher = weaker reporter binding
Method in brief: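 Three titration conditions were used: no input, 200 uM small-molecule ligand, and an oligonucleotide input. In each, SNAP-549-labelled MS2 coat protein was raised from 0.7 or 1.5 nM, doubling, to 3 µM over designed RNA switches transcribed on Illumina chips by stalled E. coli RNA polymerase. Curve fits of normalised cluster fluorescence gave values whose per-design median over clusters is the apparent KD.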

[1] = Eterna round: R95, input ligand: microRNA oligo, concentration not stated
[2] = input ligand: microRNA oligo, concentration not stated
[3] = Eterna round: R95, input ligand: FMN 200 uM
[4] = Eterna round: R95, input ligand: none

Sequence	apparent KD of MS2 coat protein [1] [nM]	apparent KD of MS2 coat protein (input ligand: FMN 200 uM) [nM]	apparent KD of MS2 coat protein (input ligand: none) [nM]	apparent KD of MS2 coat protein [2] [nM]	apparent KD of MS2 coat protein [3] [nM]	apparent KD of MS2 coat protein [4] [nM]
GCGCACUAAGUGAGGAUAUCGAUUUCUUUAAGGAUCGAGAAGGCACAUGAGGAUCACCCAUGUUUGACGUGCGC [JR_BMOE4_Sub097] (puzzle: Brourd's mod of Exclusion 4)	15.5	–	–	–	–	–
UGAAUGUCAGAGGAUAUGCACGAUUGGACCGAGGCAGAAGGCUGAACAUGAGGAUCACCCAUGUCAAGAUCUUC [Eternabot (L1) Solution 93] (Eterna round: R97, puzzle: Exclusion 6)	–	180	26.3	–	–	–
AAUAAUAGCGAGGAUAUCGUAUCGGAAACGAUACGAGAAGGCGUAACAUGAGGAUCACCCAUGUUCCUCAAUAA [Fiskers Ex 6 - 3] (puzzle: Exclusion 6)	39.7	–	–	–	–	–
GUCGUGCGGCAGUGCUGUACGAGUACAUGAGGAUCACCCAUGUAGGAUAUGGUUCGUUUUGCGUGCUAGAAGGGCGUGCGUUGA [Excl-NG3-LRO20] (Eterna round: R96, puzzle: Exclusion NG 3)	–	20	22	14	–	–
AACUCUGAGAAGGAUAUUGUACGGGAAAUGGUACAAGAAGGUUUCACAUGAGGAUCACCCAUGUCGAAUAGUGA [EX6 #69] (Eterna round: R97, puzzle: Exclusion 6)	–	34.7	22.9	–	–	–
AGCCACAGAGGAUAUACAUACAUCCAGUAGCAGAUAUUGCUACAUGAGGAUCACCCAUGUAGAAGGCUGUGGCA [Omei Ex2 BD B21] (Eterna round: R97, puzzle: Exclusion 2)	–	139	1040	–	–	–
GCGCAGUCAGGAUAUGCCGCUGGCGAUCACCGUGGGCAAAGGCAGAAGGGACAUGAGGAUCACCCAUGUGGCGC [e4e Mirror Pins #2] (puzzle: Exclusion 4)	39	–	–	–	–	–
UAUAUAUAGUAAGGAUAUGUAUAUAUUUUAUAGACAGAAGGUACUGACAUGAGGAUCACCCAUGUUUUAGUGUGGGCAUGUAGA [JMF's solution 72] (Eterna round: R96, puzzle: Exclusion NG 1)	–	105	50.5	50.4	–	–
GAAAAGGUAGGAUAUACGAAAAGAAAGGGUAGAAAAAAAACACAUGAGGAUCACCCAUGUAGAAGGACCAAAAG [salish99_ex2_r3_027] (puzzle: Exclusion 2)	26.9	–	–	–	58.7	25
CUUUUGUGAGGAUAUCAGUAGUAAAUUAAUAAAAUUACUACUGAGAAGGCACAUGAGGAUCACCCAUGUUCCUU [Mat - Exclusion 4 - Mod of Salish - D64] (puzzle: Exclusion 4)	14.9	–	–	–	–	–
GCUCGCGGGCAAGGAUAUCCUACGCUGUUCUGGUUCGUGUCUGUUACAUGAGGAUCACCCAUGUGGGAGAAGGUGCACCAGGGU [Design 49] (Eterna round: R96, puzzle: Exclusion NG 2)	–	17.5	20.1	12.4	–	–
ACGGACGCAGGAUAUCGCACCGGAGACUUGAGGAUCACCCAAGUGGUUUUCCCUUCGCAACGAGAAGGGCGACCUA [Tiarle] (Eterna round: R97, puzzle: Exclusion 5)	–	55.7	35.2	–	–	–
UUGUGCACGCUGCGGUCCUACAUGAGGAUCACCCAUGUGGUCUGGUGGCGUGGGUCACCGGACUUGGCUCGUCUUGU [salish99_S_TOV1_R5_060] (Eterna round: R97, puzzle: Sensor, turn-off variant 1)	–	36.2	42.3	–	–	–
GUCACAUGGAUGUAGGAUCACAUGAGGAUCACCCAUGUGACUAACAAGGUUUUUGCUCAUCUUAUGACUAUGUGAAU [A Brourd mod] (Eterna round: R97, puzzle: Sensor, turn-off variant 1)	–	91.7	103	–	–	–
GGUGCGUUUGUGAGGAUAUGCUGGUCCUUGGAUCGGCAGAAGGCACAUGAGGAUCACCCAUGUGGUGUCGUACC [salish99_Bmod_Ex4_035] (puzzle: Brourd's mod of Exclusion 4)	280	–	–	–	–	–
GCAGCAAACUCUAUUAAAACCACAUGAGGAUCACCCAUGUCUCAGGAUAUGGUCUGGAUUACAGGCCAGAAGGGAGAAAGCUGC [Eli exng3 - 054] (Eterna round: R96, puzzle: Exclusion NG 3)	–	15	15.1	10.9	–	–
ACCUCACAUGAGGAUCACCCAUGUCAGGAUAUGUACCCGAUCAAGUCAGAGAUUGGGAGCAGAAGGGACUGCGG [Leesla] (puzzle: Exclusion 1)	104	–	–	–	–	–
UUAAUAGCAGCGAGAUCCCACAUGAGGAUCACCCAUGUCGUAGACGAAAAGUCUACGUUAGCUCGUCUUAUAAAUAU [Winner reversed engineered 39] (Eterna round: R97, puzzle: Sensor, turn-off variant 1)	–	95.1	111	–	–	–

Sequence	apparent KD of MS2 coat protein [1] [nM]	apparent KD of MS2 coat protein (input ligand: FMN 200 uM) [nM]	apparent KD of MS2 coat protein (input ligand: none) [nM]	apparent KD of MS2 coat protein [2] [nM]	apparent KD of MS2 coat protein [3] [nM]	apparent KD of MS2 coat protein [4] [nM]
AAUAAUAGCGAGGAUAUCGUAUCGGAAACGAUACGAGAAGGCGUAACAUGAGGAUCACCCAUGUUCCUCAAUAA [Fiskers Ex 6 - 3] (Eterna round: R96, puzzle: Exclusion 6)	–	354	41	39.8	–	–
GUGUAGAUAGGAUAUACAUGAGUCUAGCGAAGCUAGAUUCUACAUGAGGAUCACCCAUGUAGAAGGGUCUACAC [Fiskers Ex 2 - 28] (puzzle: Exclusion 2)	14.3	–	–	–	–	–
AUAAGCUUUGAGAUCCUUAACAUGAGGAUCACCCAUGUUCGUCUUAUGAUGGUCUGAUCCCUGAGGAUCGGACCGUU [JL-sv1-2.02 Brourd Mod] (puzzle: Sensor v3, turn-off variant 1)	10.4	–	–	–	262	257
AGAUGCUCAAGUCGACAUGAGGAUCACCCAUGUACAGUUAACGAGGAUAUCCGAGAUAAAUAAUAGGAGAAGGCGUGAUCAUGA [Ex NG3 #3] (Eterna round: R96, puzzle: Exclusion NG 3)	–	154	123	78.2	–	–
UAAUAACAAGCAGGAUCCUACAUGAGGAUCACCCAUGUGCUCGUCUUAUAAAGUACUAUCACGAAAGUGAUAGUACA [Mat - Sensor v3 - turn-off var 1 - Eli Mod - D70] (puzzle: Sensor v3, turn-off variant 1)	148	–	–	–	272	315
AAAAGGCUAGGAUAUCGCGGUAACAACAUGAGGAUCACCCAUGUGAAGGUGUCUUCUGCCCGAGAAGGAGCAGAGU [Tientixe] (puzzle: Exclusion 5)	25.6	–	–	–	43.2	29.9
GCACGGAGUGUAGGAUAUCUGUGCGAUUAGCUCAGAGAAGGACACAUGAGGAUCACCCAUGUGUAACUCAACAAUAAUCCGUGC [Eli exng1 - 073] (Eterna round: R96, puzzle: Exclusion NG 1)	–	18.3	11.9	8.53	–	–
ACAUGUUAUCCAUGAUAUCACAUGAGGAUCACCCAUGUUAUGGCGAUUUUGAGGUGUAAGCUUUGUGCUCGACUUAU [JR_STOV1_Sub056] (Eterna round: R97, puzzle: Sensor, turn-off variant 1)	–	45	50	–	–	–
AUGGACGCAGGAUAUACAUGAGGAUCACCCAUGUUAGGGUUGUGAGUAGGAAGGGAAGGUAGAAGGGCGAGAGU [JR_Exclu3_Sub099] (puzzle: Exclusion 3)	86.9	–	–	–	–	–
AAGAGGUCAGGAUAUACGGGAAGAGGGAGAAGUAGAGGGUAACAUGAGGAUCACCCAUGUAGAAGGGACUAAGA [JR_Exclu2_Sub073] (puzzle: Exclusion 2)	26.4	–	–	–	26.7	28.1
CAGGAAGCGGAGGAUAUGAUGAAAACUCGGCAAUCAGAAGGCCGCACAUGAGGAUCACCCAUGUCGCAAAUACC [Eternabot (Original) Solution 36] (Eterna round: R97, puzzle: Exclusion 6)	–	16.6	15.3	–	–	–
AUACCACGAGGAUAUCGUCUAUAAUACAUGAGGAUCACCCAUGUUAUAUCUGUAAUGUUUCGAGAAGGCGUGUGUU [JR_E5_Sub084] (Eterna round: R96, puzzle: Exclusion 5)	–	17	21.3	15.4	–	–
AUAAAUCAUGUAGGAUAUGCGUGGCGAAGCUAUGCAGAAGGACAUGAGGAUCACCCAUGUGCUUGCGUCUGCGUACAGAUGCUA [Mat - Exclusion NG 1 - Mod of JL - D5] (Eterna round: R96, puzzle: Exclusion NG 1)	–	330	51.7	37.7	–	–
AGAUCACAUGAGGAUCACCCAUGUCAGGAUAUCGUCACUGGAGCCUCGGCUCCAGUGACGAGAAGGGAUAAUUA [E1/4-A2] (Eterna round: R97, puzzle: Exclusion 1)	–	116	69	–	–	–
UAUAUAUAGUAAGGAUAUGUAUUAAUUAUAUAAACAGAAGGUACUGACAUGAGGAUCACCCAUGUUUUAGUGUGGGCAUGUAGA [JMF's solution 80] (Eterna round: R96, puzzle: Exclusion NG 1)	–	–	–	65.8	–	–
UGCAUGCUAGGAUAUACGAAACAUUAGGGUUCGUCGUAUGAACAUGAGGAUCACCCAUGUAGAAGGAGCGUGCU [Mod6 of JL-ex2-2.15 mat747 mod] (puzzle: Exclusion 2)	16.8	–	–	–	–	–
CCGGAUUAGUAGGAUAUAGGAGUCGAUAGACACCUAGAAGGACUAACAUGAGGAUCACCCAUGUGUCCUACCGG [Mod of Eli 19 - Jieux - Exclusion 6] (Eterna round: R97, puzzle: Exclusion 6)	–	39	16.7	–	–	–
